This passage reports Kd, koff and kon results from patent US20250340623A1.

The term Kd denotes a measure of binding affinity in units of concentration. Low readings indicate tighter binding, high ones weaker binding. What is called koff is the rate constant with which the complex falls apart. A high value points to fast dissociation. The kon is a measure of how fast the partners come together.

Substitutions are numbered along the chain they refer to.

The labels stand for the following.
B1: ACI-8033-18D12-Ab1 (antibody, V domains shown)
VH: QVQLQQPGAELVKPGASVKMSCKASGYTFTSYWITWVRQRPGQGLDWIGDIYPGGGVTNYNEKFKTKATLTVDTSSSTAYMHLSSLTSEDSAVYFCATAQTTFAHWGQGTLVTVSA
VL: DVLMTQTPLSLPVSLGDQASISCRSSQNIAHNNGNTYLEWYLQKPGQSPKLLIYKVSNRFSGVPDRFSGSGSGTDFTLKISRVEAEDLGVYYCFQGSHVPRTFGGGTKLEIK
B2: ACI-7079-2503C6-Ab1 (antibody, V domains shown)
VH: DVQLQESGPGLVKPSQSLSLTCSVTGYSITSGYYWNWIRLFPGNKLEWLGYINYDGSNNFNPSLKNRISITRDTSKNQFFLKLNSVTSEDTATYFCLRGDWDWGQGTLVTVSA
VL: not shown
B3: ACI-7088-4317A4-Ab1 (antibody, V domains shown)
VH: EVQLQQSGAELVRPGASVKLSCTASGFNIKDDYMHWVKQRPEQGLEWIGWIDPENGDTEYASKFQGKATMTADTSSNTAYLQLSSLTSEDTAVYYCKTWGTTQALFPYWGQGTLVTVSA
VL: DIVMTQSQKFMYTSVGDRVSITCKASQNVGNAVGWYQQKAGQSPKLLIHSASNRYTGVPDRFTGTGSGTDFTLTINNMQSEDLADYFCQQYRSYPLTFGAGTKLELK
B4: ACI-7079-2603F3-Ab1 (antibody, V domains shown)
VH: EVQLVESGGGLVQPKGSLKLSCAASGFTFNTYAMHWVRQAPGKGLEWVARIRSKGSNYATYYADSVKDRFTISRDDSQSMLYLQMNNLKTEDTAMYYCVRGGGDSWFAYWGQGTLVTVSA
VL: QIVLTQSPAIMSASPGERVTMTCTASSSVSYMHWYQQKSGTSPKRWIYDTSKLASGVPARFSGSGSGASYTLTISSMEAEDAATYYCQQWNSNPPTFGGGTQLAIK
B5: ACI-7067-1113D10-Ab1 (antibody, V domains shown)
VH: EVQLVESGGGLVQPKGSLKLSCAASGFTFNTYALHWVRQAPGKGLEWVARIRSKSSNYATYYADSVKDRFTISRDDSQSMLYLQMNNLKTEDTGMYYCVRGGVSPFDYWGQGTTLTVSS
VL: B4 VL with R18K, T24S, A68T, T71S, A82S, N91S, S92N, Q102K, A104E
B6: ACI-7067-1112H8-Ab2 (antibody, V domains shown)
VH: EVKLEESGGGLVQPGGSMKLSCAASGFTFTDAWMNWVRQSPEKGLEWIAEIRNKAHNYATYYAESVKGRFDISGDDSKSSVYLQMNNLRVEDTGIYYCTIYSYWGPGTLVTVSA
VL: SIVMTQTPKFLLMSPGDRVTMTCTASQSVSNYVAWYQQKPGQSPKLLIYSASNRFTGVPDRFTGSGYGTDFTFTINTVQTEDMAVYFCQQDYTSPYTFGGGTKLEIK
B7: ACI-8033-1A12-Ab1 (antibody, V domains shown)
VH: QVHLKQSGADLVRPGASVKLSCKASGYSFTDFYINWVKQTPGQGLEWIARIYPGNNNTFYNEKFKGKATLSAEKSSTTAYMQLSSLTSEDSAVYFCVVGYYGAWGQGTTLTVSS
VL: DVVMTQTPLSLPVSLGDQASISCRSSQSLVHSNGNTHLHWYLQKPGQSPKLLIYKVSNRFSGVPDRFSGSGSGTDFTLKISRVEAEDLGFYFCSQSTHVPWTFGGGTKLEIK
B8: ACI-8033-1F8-Ab1 (antibody, V domains shown)
VH: DVQLQESGPGLVKPSQSLSLTCSVTGYSITSGFYWNWIRQFPGNKLEWMGYISYDGSNNYNPSLKNRISIIRDTSKNQFFLKLKSVTSEDTATYYCVRGDVDWGQGTTLTVSS
VL: not shown
B9: ACI-7067-1111B12-Ab2 (antibody, V domains shown)
VH: QVQLLQPGTALVMPGASVKLSCKASGYTFTTYWMHWVKQRPGQGLEWIGNINPINGGSNYNEKFKSKASLTVDKSSSTAYMQLSSLTSEDSAVYYCVIAMDYWGQGTSVTVSS
VL: DIQMTQSPSSLSASLGERVSLTCRASQDIGISLNWFQQEPDGTIKRLIYATSSLDSGVPKRFSGNRSGSDYSLTISSLESEDFADYYCLQFASSPLTFGAGTKLELK
B10: ACI-8033-4F3-Ab1 (antibody, V domains shown)
VH: EVQLQQSGPELVKPGASVKISCKASGYTFTDYYMNWVKQSHGKSLEWIGDINPNTGTNSYNQKFKGRASLTVDKFSSAAYMELRSLTSEDSAVYYCARTGYGDPISSYYYALDYWGQGTSVTVSS
VL: DIVMSQSPSSLAVSAGEKVTMSCKSSQSLLNSRTRKNYLAWYQQKPGQSPKLLIYWASTRESGVPDRFTGSGSGTDFTLTISSVQAEDLAVYYCKQSYNLWTFGGGTKLEIK
B11: ACI-8033-17F5-Ab1 (antibody, V domains shown)
VH: EVQLQQSGPELVKPGASVKISCKASGYTFTDYFMNWVKQSHGKSLEWIGDINPNIDVTNYNQKFKGKATLTVDKSSSTAYMELRSLTSEDSAVYYCARGRDYAMDFWGQGTSVTVSS
VL: B10 VL with N99D
B12: ACI-8033-18C11-Ab1 (antibody, V domains shown)
VH: B1 VH with S25A, T30S, H82Q, F95Y, H105Y
VL: B1 VL with A30V
B13: ACI-7079-2501G2-Ab2 (antibody, V domains shown)
VH: EVQLVESGGGLVQPKGSLKLSCAASGFNFNTYAMNWVRQAPGKGLEWVARIRTKSNNFATYYAHSVKDRFTISRDDSESMLYLQMNNLKTEDTAMYYCVRQGLAYYAMDYWGQGTSVTVSS
VL: B1 VL with A19V, N28T, A30V, N32S, H98Q, V99G, R101L, G105A, I111L
B14: ACI-7067-1116F2-Ab1 (antibody, V domains shown)
VH: DVQLQESGPGFVKPSQSLSLTCSVTGYSITRGFYWNWIRQFPGNKLEWMGYISDDGNSNYNPSLKNRISITRDTFKNQVFLRLNSVTTEDTATYYCTRGDLLWGQGTTLTVSS
VL: not shown
B15: ACI-7079-2501B11-Ab3 (antibody, V domains shown)
VH: QVQLQQSGPELVKPGASVKISCKASGYAFSSFWMNWMKQRPGKGLEWIGRIYPGDGDAHYNGEFKGRATLTADKSSSTAYMQLSSLTSEDSAVYFCARKGDFYGSNYDYWGQGTTLTVSS
VL: QAVVTQESALTTSPGETVTLTCRSSTGAVTTSNYANWVQEKPDHLFTGLIGGTNNRAPGVPARFSGSLIGDKAALTITGAQTEDEAIYFCALWYSNHLVFGGGTRLTVL
B16: ACI-7079-2501D10-Ab1 (antibody, V domains shown)
VH: EVQLVESGGGLVQPKGSLKVSCAASGFTFKTYAMHWVRQAPGKGLEWVARIRSENSNFAKYYADSVKDRFTISRDDSQSMLYLQMNNLKTEDTAMYYCVRGYNGSSLDYWGQGTTLTVSS
VL: B4 VL with S14F, T24S, S30N, S64G, A68T, T71S, S76N, N91R, Q102K, A104E
B17: ACI-7067-1108B11-Ab2 (antibody, V domains shown)
VH: B4 VH with Y61N, G102H, D104S, W106Y, A108S
VL: QIVLTQSPAIMSASPGERITMTCSANSSVTYMHWYQQKSGTSPKRWIYDTSNLASGVPARFSGSGSGTSYSLTISSMEAEDAATYYCQQWKSHPPTFGAGTKLELK

One assay concerns the target monomeric alpha-synuclein, P37840. The assay can be described thus: SPR, captured mAb; alpha-synuclein monomers. The following applies: remark: other sources report otherwise.
Turning to B1, the Kd worked out at 3.2 nM.

B2: the Kd was 3 nM.

In the case of B3, the Kd amounted to 3660 nM.

As to B4, the equilibrium dissociation constant (Kd) came to 293 nM.

For another assay, the target named is alpha-synuclein fibrils, P37840. Description: SPR, captured mAb; alpha-synuclein fibrils. Particulars: remark: other sources report otherwise. In general terms: In SPR one partner is held on a chip, and binding of the other changes the refractive index at the surface.
Molecule B3 gave a Kd of 3 nM.

B4 returned a Kd of 0.002 nM.

Take B5: the Kd came to 0.06 nM. This Kd is about 30-fold higher than that of the molecule before.

A further assay shares this target. Description: SPR, captured mAb. The following applies: remark: other sources report otherwise.
Take B6: the Kd worked out at 18.7 nM, the off-rate constant (koff) is 0.00245 s⁻¹ and the kon came out at 285000 M⁻¹ s⁻¹.

For B7, the Kd stood at 9.8 nM, the koff was found to be 6.53e-05 s⁻¹ and the kon was determined as 6660 M⁻¹ s⁻¹.

With B8, the Kd turned out to be 1010 nM, the koff was 0.000996 s⁻¹ and the on-rate (kon) worked out at 983 M⁻¹ s⁻¹.

Consider B9, for which the Kd was found to be 39.2 nM, the koff was found to be 0.00101 s⁻¹ and the kon was determined as 26300 M⁻¹ s⁻¹.

As to B10, the Kd came out at 0.05 nM, the koff is 2.24e-07 s⁻¹ and the kon is 4500 M⁻¹ s⁻¹.

The molecule B11 had a Kd of 8.7 nM, a koff of 0.00012 s⁻¹ and a kon of 13700 M⁻¹ s⁻¹.

B12 displayed a Kd of 30.4 nM, a koff of 0.000251 s⁻¹ and a kon of 8270 M⁻¹ s⁻¹.

B13 came in with an equilibrium dissociation constant (Kd) of 27.8 nM, a koff of 0.000528 s⁻¹ and a kon of 19000 M⁻¹ s⁻¹.

B14 yielded a dissociation constant Kd of 55.1 nM, a koff of 0.000458 s⁻¹ and a kon of 8300 M⁻¹ s⁻¹.

The molecule B3 showed a koff of 0.000998 s⁻¹ and a kon of 337000 M⁻¹ s⁻¹.

For the molecule B15, the Kd was found to be 31.8 nM, the koff was found to be 0.000347 s⁻¹ and the kon amounted to 10900 M⁻¹ s⁻¹.

As for B4, the koff was determined as 1.6e-08 s⁻¹ and the kon was found to be 7310 M⁻¹ s⁻¹.

For the molecule B16, the Kd came to 24.7 nM, the koff was 0.000427 s⁻¹ and the kon came to 17300 M⁻¹ s⁻¹.

B17: the Kd amounted to 18.6 nM, the off-rate (koff) worked out at 0.00205 s⁻¹ and the kon is 251000 M⁻¹ s⁻¹.

With B5, the koff came out at 4.16e-07 s⁻¹ and the kon turned out to be 6940 M⁻¹ s⁻¹.

Another assay has as its target monomeric alpha-synuclein, P37840. The assay can be described thus: SPR, captured mAb. Particulars: remark: other sources report otherwise.
Consider B6, for which the Kd came to 6.3 nM, the koff stood at 0.00158 s⁻¹ and the kon worked out at 250000 M⁻¹ s⁻¹.

B7 had a Kd of 31.9 nM, a koff of 0.0327 s⁻¹ and an association rate constant (kon) of 1.02e+06 M⁻¹ s⁻¹.

As to B8, the Kd was found to be 24.3 nM, the koff turned out to be 0.000738 s⁻¹ and the kon came out at 30400 M⁻¹ s⁻¹.

In turn, B9 returned a Kd of 8.1 nM, a koff of 0.0014 s⁻¹ and a kon of 172000 M⁻¹ s⁻¹.

Molecule B10 displayed a Kd of 1.7 nM, a koff of 0.00016 s⁻¹ and a kon of 97000 M⁻¹ s⁻¹.

In turn, B11 showed a Kd of 2.4 nM, a koff of 0.000232 s⁻¹ and a kon of 96600 M⁻¹ s⁻¹.

B12: the Kd was 1.8 nM, the koff amounted to 0.000263 s⁻¹ and the on-rate (kon) was 143000 M⁻¹ s⁻¹.

Turning to B13, the dissociation constant (Kd) turned out to be 2.9 nM, the koff worked out at 0.00084 s⁻¹ and the kon was determined as 291000 M⁻¹ s⁻¹.

Take B1: the koff came to 0.26 s⁻¹ and the kon came out at 8.25e+07 M⁻¹ s⁻¹.

Consider B2, for which the off-rate (koff) was found to be 0.00012 s⁻¹ and the kon was 40500 M⁻¹ s⁻¹.

Molecule B14 displayed a Kd of 4.9 nM, a koff of 0.000232 s⁻¹ and a kon of 47000 M⁻¹ s⁻¹.

In turn, B3 came in with a koff of 0.012 s⁻¹ and an on-rate constant (kon) of 3280 M⁻¹ s⁻¹.

Molecule B15 yielded an equilibrium dissociation constant (Kd) of 2.4 nM, a koff of 0.000335 s⁻¹ and a kon of 141000 M⁻¹ s⁻¹.

On to B4, for which the koff was found to be 0.0149 s⁻¹ and the kon was determined as 50800 M⁻¹ s⁻¹.

Turning to B16, the Kd worked out at 1.6 nM, the koff was found to be 0.00043 s⁻¹ and the kon came out at 264000 M⁻¹ s⁻¹.

B17 gave a dissociation constant Kd of 8.1 nM, a koff of 0.00154 s⁻¹ and an on-rate (kon) of 191000 M⁻¹ s⁻¹.
